Reference: the supplement of paper PMC10567573

B1: CLCN6 (parent)
chain: TGLVGLFVDFFVRLFTQLKFGVVQ
B2: FAM46C (parent)
chain: VRSRLEEAGIKVHDVRLNGSAAGH

Variants of: B1
Experiment: protein stability index of a GFP-peptide fusion (GPS, HEK-293T) (PSI 1-6); higher = more stable
Details: c terminus: a fixed tail appended
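Further: lentivirally expressed fusions sorted by FACS into six bins by GFP to DsRed ratio, PSI derived from sequencing read proportions per bin multiplied by bin number.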

Protein stability index: each site, then its substitutions
F7: Q 2.03 | R 1.69 | S 1.82 | T 2.35 | V 3.05 | W 2.28 | Y 2.54
V8: A 1.6 | C 2.25 | D 2.45 | E 1.38 | F 2.04 | G 2.9 | H 2.77 | I 1.74 | K 2.04 | L 3.04 | M 2.08 | N 2.27 | P 1.7 | Q 2.05 | R 2.25 | S 1.76 | T 1.9 | W 3.01 | Y 2.79
D9: A 1.59 | C 1.25 | E 2.12 | F 2.17 | G 2.47 | H 2.61 | I 2.68 | K 3.08 | L 1.86 | M 1.89 | N 2.87 | P 1.92 | Q 2.24 | R 3.51 | S 2.15 | T 1.97 | W 1.51 | Y 1.89
F10: A 2.34 | C 1.42 | D 2.75 | E 2.19 | G 1.29 | H 1.61 | I 2.21 | K 1.98 | L 1.77 | M 1.81 | N 2.32 | P 2.17 | Q 1.85 | R 2.82 | S 1.8 | T 2 | V 2.42 | W 2.7 | Y 2.27
F11: A 2.84 | C 2.93 | D 4.03 | E 2.4 | G 1.76 | H 2.21 | I 2.29 | K 3.06 | L 2.32 | M 2.16 | N 2.88 | P 2.07 | Q 3.25 | R 2.75 | S 1.77 | T 2.01 | V 2.65 | W 2.35 | Y 2.32
V12: A 2.11 | C 2.71 | D 1.73 | E 1.96 | F 2.1 | G 2.11 | H 2.09 | I 2.02 | K 1.91 | L 1.95 | M 2.47 | N 1.56 | P 1.78 | Q 2.52 | R 2.04 | S 2.45 | T 2.08 | W 2.95 | Y 3.07
R13: A 2.04 | C 2.09 | D 1.83 | E 2.34 | F 2.96 | G 1.54 | H 2.22 | I 2.59 | K 2.73 | M 3.23 | N 1.91 | P 3.13 | Q 1.81 | S 1.84 | T 2.19 | V 1.76 | W 2.1 | Y 2.62
L14: A 1.61 | C 2.1 | D 4.06 | F 2.57 | G 1.68 | H 1.85 | I 2.25 | K 2.34 | M 2.27 | N 1.83 | P 1.68 | Q 1.55 | R 1.86 | S 2.19 | T 1.99 | V 2.02 | W 2.8 | Y 2.25
F15: A 1.96 | C 2.2 | D 2.88 | G 2.95 | H 2.71 | I 3.25 | K 2.12 | L 1.96 | M 1.77 | N 2.67 | P 2.86 | Q 3.33 | R 2.27 | S 2.76 | T 2.51 | V 2.72 | W 3.46 | Y 2.73
T16: A 2.43 | C 1.99 | D 2.42 | E 1.75 | F 2.04 | G 2.81 | H 2.78 | I 2.41 | K 2.76 | L 2.02 | M 2.35 | N 3.55 | P 1.8 | Q 3 | R 3.85 | S 2.91 | V 1.78 | W 3.32 | Y 1.98
Q17: A 2.38 | C 2.01 | D 1.81 | E 2 | F 2.44 | G 1.77 | H 2.26 | I 1.79 | K 2.48 | L 2.43 | M 2.09 | N 2.44 | P 2.08 | R 3.5 | S 2.81 | T 2.12 | V 2.14 | W 3.5 | Y 2.06
L18: A 1.97 | C 2.36 | D 2.25 | F 2.46 | G 2.21 | H 3.39 | I 2.7 | K 2.02 | M 2.48 | N 3.66 | P 2.63 | R 2.74 | S 2.03 | T 2.75 | V 1.98 | W 1.66 | Y 3.06
K19: A 2.84 | D 3.05 | E 4.38 | F 1.89 | G 1.98 | H 3.23 | L 2.56 | M 3.13 | N 2.21 | P 1.91 | Q 2.89 | R 2.17 | S 2.92 | T 2.33 | V 2.66 | W 3.05 | Y 2.85
F20: A 3.03 | C 3.79 | D 4.13 | E 3.61 | G 2.89 | H 2.58 | I 2.97 | K 4.3 | L 2.96 | M 2.77 | N 3.99 | P 2.12 | Q 3.83 | R 4.55 | S 3.86 | T 3.48 | V 2.84 | W 2.63 | Y 2.55
G21: A 3.26 | C 1.86 | D 2.38 | E 2.3 | F 3.79 | H 3.06 | I 2.94 | K 3.7 | L 3.33 | M 3.39 | N 2.38 | P 2.35 | Q 2.77 | R 3.56 | S 3.08 | T 2.4 | V 3 | W 3.59 | Y 3.39
V22: A 1.77 | C 1.87 | E 3.23 | F 2.6 | G 1.72 | H 1.92 | I 2.84 | K 2.26 | L 2.5 | M 2.58 | N 1.25 | P 2.07 | Q 2.48 | R 2.34 | S 2.33 | T 2.18 | W 2.72 | Y 2.36
V23: A 2.27 | C 2.78 | D 2.41 | E 1.94 | F 2.98 | G 2.18 | H 1.81 | I 2.23 | K 2.45 | L 2.92 | M 2.68 | N 2 | P 1.97 | Q 2.77 | R 3.09 | S 2.73 | T 2.36 | W 3.3 | Y 2.51
Q24: A 1.66 | C 1.26 | D 2.46 | E 2.08 | F 1.18 | G 2.32 | H 2.07 | I 2.66 | K 3.16 | L 2.14 | M 1.9 | N 2.55 | P 1.88 | R 3.77 | S 2.94 | T 1.6 | V 1.71 | W 2.36 | Y 1.74

Variants of: B2
Experiment: as above
Details: c terminus: a fixed tail appended

Protein stability index, by site and new letter:
A8: I 1.66
S3: N 1.77 | Q 1.79 | V 1.69 | G 2.91
G9: C 3.03
H24: Q 2.67
V12: A 3.93
G23: A 2.92
G19: S 2.09
R2: A 3.04 | Y 2.95
R4: H 3.26
